Results as given in patent CN116178550A (BEIJING DONGFANG BIOTECH CO LTD, dated 2023).

Tests used:
[1] = target: T1, 人单核细胞白血病细胞(THP-1)表面LILRB4 (human, UniProt Q8NHJ6 22-448); assay: cell-based or functional assay
LILRB4抗原 (人LILRB4蛋白胞外段) [2] = target: T2, LILRB4抗原 (人LILRB4蛋白胞外段) (human, UniProt Q8NHJ6 22-259); assay: ELISA, protein coated 100 ng/well, MF-I at 50 μg/mL
T2 construct: extracellular domain; also called 白细胞免疫球蛋白样受体亚家族B成员4

LILRB1 [3] = target: T3, LILRB1 (UniProt Q8NHL6 24-461, limits assumed); assay: as above
LILRA5 [4] = target: T4, LILRA5 (UniProt A6NI73 42-268, limits assumed); assay: as above
LILRA4 [5] = target: T5, LILRA4 (UniProt P59901 24-446, limits assumed); assay: as above
LILRA6 [6] = target: T6, LILRA6 (UniProt Q6PI73 24-447, limits assumed); assay: as above
LILRA3 [7] = target: T7, LILRA3 (UniProt Q8N6C8 24-439); assay: as above
LILRB3 [8] = target: T8, LILRB3 (UniProt O75022 24-443, limits assumed); assay: as above
LILRB5 [9] = target: T9, LILRB5 (UniProt O75023 24-458, limits assumed); assay: as above
LILRB2 [10] = target: T10, LILRB2 (UniProt Q8N423 22-460, limits assumed); assay: as above
LILRA2 [11] = target: T11, LILRA2 (UniProt Q8N149 24-449, limits assumed); assay: as above
LILRA1 [12] = target: T12, LILRA1 (UniProt O75019 17-461, limits assumed); assay: as above
LILRB4抗原 (人LILRB4蛋白胞外段) [13] = target: T2, LILRB4抗原 (人LILRB4蛋白胞外段); assay: ELISA, LILRB4 coated 100 ng/well, Goat Anti-Mouse IgG-HRP
LILRB1 [14] = target: T3, LILRB1; assay: ELISA, protein coated 100 ng/well, Goat Anti-Mouse IgG-HRP
LILRA5 [15] = target: T4, LILRA5; assay: as above
LILRA4 [16] = target: T5, LILRA4; assay: as above
LILRA6 [17] = target: T6, LILRA6; assay: as above
LILRA3 [18] = target: T7, LILRA3; assay: as above
LILRB3 [19] = target: T8, LILRB3; assay: as above
LILRB5 [20] = target: T9, LILRB5; assay: as above
LILRB2 [21] = target: T10, LILRB2; assay: as above
LILRA2 [22] = target: T11, LILRA2; assay: as above
LILRA1 [23] = target: T12, LILRA1; assay: as above
[24] = target: T1, 人单核细胞白血病细胞(THP-1)表面LILRB4; assay: flow cytometry on THP-1 cells, competition with 0.4 μg/mL FITC-labelled ApoE

T11 sequence (Q8N149 24-449 limits assumed): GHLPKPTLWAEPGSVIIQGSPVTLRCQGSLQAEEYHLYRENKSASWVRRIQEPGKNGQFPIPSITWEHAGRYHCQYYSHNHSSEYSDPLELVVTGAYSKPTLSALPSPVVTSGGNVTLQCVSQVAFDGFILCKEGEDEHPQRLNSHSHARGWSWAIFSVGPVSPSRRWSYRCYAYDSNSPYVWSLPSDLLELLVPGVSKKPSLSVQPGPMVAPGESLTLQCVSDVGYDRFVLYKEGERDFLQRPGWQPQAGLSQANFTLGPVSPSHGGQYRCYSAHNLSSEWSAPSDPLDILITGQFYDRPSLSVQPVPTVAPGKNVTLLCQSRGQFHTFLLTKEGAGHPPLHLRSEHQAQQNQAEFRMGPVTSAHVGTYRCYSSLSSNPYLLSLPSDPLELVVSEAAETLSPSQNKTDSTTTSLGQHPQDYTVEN
T12 sequence (O75019 17-461 limits assumed): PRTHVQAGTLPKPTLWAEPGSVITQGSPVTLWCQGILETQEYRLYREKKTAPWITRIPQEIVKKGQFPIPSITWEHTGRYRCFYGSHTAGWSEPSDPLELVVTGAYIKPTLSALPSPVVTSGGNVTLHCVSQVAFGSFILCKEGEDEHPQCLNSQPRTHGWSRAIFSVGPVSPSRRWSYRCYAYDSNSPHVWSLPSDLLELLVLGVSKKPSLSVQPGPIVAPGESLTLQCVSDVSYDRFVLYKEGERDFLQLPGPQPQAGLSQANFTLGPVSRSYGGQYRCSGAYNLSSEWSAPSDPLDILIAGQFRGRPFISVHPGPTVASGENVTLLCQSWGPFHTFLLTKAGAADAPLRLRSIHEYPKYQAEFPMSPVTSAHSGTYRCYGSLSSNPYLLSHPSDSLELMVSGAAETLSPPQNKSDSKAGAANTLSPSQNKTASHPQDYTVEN
T10 sequence (Q8N423 22-460 limits assumed): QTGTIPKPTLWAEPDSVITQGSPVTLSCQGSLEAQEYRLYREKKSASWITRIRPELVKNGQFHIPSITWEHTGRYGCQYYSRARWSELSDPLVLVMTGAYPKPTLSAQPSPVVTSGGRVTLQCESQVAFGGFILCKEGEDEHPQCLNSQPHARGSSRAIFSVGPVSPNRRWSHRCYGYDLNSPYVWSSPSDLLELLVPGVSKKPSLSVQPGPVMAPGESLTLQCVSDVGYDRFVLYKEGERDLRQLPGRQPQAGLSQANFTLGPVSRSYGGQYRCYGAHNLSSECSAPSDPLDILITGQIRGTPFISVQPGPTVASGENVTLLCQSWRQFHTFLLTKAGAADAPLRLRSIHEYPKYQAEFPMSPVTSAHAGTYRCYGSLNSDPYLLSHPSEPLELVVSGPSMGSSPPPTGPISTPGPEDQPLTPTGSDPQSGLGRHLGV
T7 sequence (Q8N6C8 24-439 limits assumed): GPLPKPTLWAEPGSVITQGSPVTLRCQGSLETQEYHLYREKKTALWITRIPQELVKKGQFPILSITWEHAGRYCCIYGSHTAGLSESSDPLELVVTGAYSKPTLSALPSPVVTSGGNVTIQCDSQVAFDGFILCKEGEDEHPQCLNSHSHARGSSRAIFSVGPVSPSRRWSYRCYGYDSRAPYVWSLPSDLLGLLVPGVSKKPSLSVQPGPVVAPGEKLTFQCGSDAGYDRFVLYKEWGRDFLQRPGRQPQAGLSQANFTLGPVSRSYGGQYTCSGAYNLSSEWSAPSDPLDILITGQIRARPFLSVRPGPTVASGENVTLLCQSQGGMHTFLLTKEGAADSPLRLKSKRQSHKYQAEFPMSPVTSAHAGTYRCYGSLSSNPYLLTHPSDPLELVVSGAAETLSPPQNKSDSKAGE
T3 sequence (Q8NHL6 24-461 limits assumed): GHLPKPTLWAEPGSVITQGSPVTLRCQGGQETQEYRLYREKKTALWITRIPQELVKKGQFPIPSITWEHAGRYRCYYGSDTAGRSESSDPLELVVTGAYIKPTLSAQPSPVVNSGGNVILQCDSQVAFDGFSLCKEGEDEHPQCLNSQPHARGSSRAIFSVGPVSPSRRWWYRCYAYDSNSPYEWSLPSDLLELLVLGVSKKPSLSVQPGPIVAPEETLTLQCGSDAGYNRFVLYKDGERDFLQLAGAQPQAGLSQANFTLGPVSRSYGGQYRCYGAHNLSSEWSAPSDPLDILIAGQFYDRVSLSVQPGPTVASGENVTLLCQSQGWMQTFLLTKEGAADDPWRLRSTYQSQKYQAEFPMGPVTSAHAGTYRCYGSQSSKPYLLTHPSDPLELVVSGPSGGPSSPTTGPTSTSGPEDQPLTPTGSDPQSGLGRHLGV
T5 sequence (P59901 24-446 limits assumed): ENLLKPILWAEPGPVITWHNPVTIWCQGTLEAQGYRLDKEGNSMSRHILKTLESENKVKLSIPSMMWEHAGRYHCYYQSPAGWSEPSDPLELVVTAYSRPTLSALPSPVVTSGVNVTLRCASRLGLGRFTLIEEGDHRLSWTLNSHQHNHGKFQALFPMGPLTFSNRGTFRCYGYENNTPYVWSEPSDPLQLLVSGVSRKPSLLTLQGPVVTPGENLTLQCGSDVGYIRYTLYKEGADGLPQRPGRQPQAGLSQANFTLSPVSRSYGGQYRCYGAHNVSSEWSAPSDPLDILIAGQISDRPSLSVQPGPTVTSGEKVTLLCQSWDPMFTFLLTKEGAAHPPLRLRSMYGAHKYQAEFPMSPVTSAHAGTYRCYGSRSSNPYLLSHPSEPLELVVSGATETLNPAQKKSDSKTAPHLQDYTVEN
T4 sequence (A6NI73 42-268 limits assumed): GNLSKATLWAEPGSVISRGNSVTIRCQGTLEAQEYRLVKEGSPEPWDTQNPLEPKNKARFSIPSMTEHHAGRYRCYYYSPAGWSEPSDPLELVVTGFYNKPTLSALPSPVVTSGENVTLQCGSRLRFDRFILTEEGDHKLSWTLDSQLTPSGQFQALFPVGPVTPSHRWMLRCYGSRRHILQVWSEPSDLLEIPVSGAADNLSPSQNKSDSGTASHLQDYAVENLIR
T6 sequence (Q6PI73 24-447 limits assumed): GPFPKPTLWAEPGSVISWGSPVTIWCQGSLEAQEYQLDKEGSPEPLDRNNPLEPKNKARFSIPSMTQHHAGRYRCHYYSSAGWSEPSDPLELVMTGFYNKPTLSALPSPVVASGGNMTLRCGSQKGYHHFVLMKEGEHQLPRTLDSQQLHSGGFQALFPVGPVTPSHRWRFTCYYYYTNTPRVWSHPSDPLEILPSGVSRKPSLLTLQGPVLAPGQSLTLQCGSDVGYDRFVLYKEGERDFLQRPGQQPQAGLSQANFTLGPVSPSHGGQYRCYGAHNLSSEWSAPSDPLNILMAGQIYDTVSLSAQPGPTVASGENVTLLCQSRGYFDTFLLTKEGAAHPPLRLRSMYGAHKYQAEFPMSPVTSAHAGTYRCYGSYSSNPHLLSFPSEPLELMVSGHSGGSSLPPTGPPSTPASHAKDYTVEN
T9 sequence (O75023 24-458 limits assumed): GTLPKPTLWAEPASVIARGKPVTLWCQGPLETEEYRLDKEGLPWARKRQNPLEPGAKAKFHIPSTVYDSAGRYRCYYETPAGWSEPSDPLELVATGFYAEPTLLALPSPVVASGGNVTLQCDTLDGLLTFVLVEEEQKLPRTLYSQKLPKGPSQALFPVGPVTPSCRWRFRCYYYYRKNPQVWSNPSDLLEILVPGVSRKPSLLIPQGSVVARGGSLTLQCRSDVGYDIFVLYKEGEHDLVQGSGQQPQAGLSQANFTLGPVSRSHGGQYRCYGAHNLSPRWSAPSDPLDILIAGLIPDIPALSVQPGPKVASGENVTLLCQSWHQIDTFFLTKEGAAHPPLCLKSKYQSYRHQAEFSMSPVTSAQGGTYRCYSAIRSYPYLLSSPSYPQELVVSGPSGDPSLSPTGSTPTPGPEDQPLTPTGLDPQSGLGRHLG
T8 sequence (O75022 24-443 limits assumed): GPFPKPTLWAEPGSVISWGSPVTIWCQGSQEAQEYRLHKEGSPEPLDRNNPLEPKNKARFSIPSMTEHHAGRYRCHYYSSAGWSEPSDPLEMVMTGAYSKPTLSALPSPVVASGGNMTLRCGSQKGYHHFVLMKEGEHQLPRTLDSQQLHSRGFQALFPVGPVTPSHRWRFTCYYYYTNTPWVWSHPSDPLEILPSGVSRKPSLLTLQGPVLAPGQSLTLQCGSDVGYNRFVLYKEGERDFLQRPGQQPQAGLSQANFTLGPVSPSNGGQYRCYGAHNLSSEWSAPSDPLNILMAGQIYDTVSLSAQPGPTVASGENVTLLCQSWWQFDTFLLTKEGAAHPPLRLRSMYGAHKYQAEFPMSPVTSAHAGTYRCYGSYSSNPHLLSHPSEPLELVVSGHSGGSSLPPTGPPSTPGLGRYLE

- IC50(μg/mL), 抑制THP-1分泌ARG1 (arginase activity in the supernatant, with 0.5 μg/mL ApoE) [1]: 367 µg/mL
- OD 450nm/630nm (LILRB4抗原 (人LILRB4蛋白胞外段) [2]): 2.3
- OD 450nm/630nm (LILRB1 [3]): 0.123
- OD 450nm/630nm (LILRA5 [4]): 0.012
- OD 450nm/630nm (LILRA4 [5]): 0.014
- OD 450nm/630nm (LILRA6 [6]): 0.112
- OD 450nm/630nm (LILRA3 [7]): 0.064
- OD 450nm/630nm (LILRB3 [8]): 0.18
- OD 450nm/630nm (LILRB5 [9]): 0.012
- OD 450nm/630nm (LILRB2 [10]): 0.213
- OD 450nm/630nm (LILRA2 [11]): 0.036
- OD 450nm/630nm (LILRA1 [12]): 0.111
- EC50 (LILRB4抗原 (人LILRB4蛋白胞外段) [13]): 0.406 µg/mL
- binding result (LILRB1 [14]): no binding (tested: 50μg/mL)
- binding result (LILRA5 [15]): no binding (tested: 50μg/mL)
- binding result (LILRA4 [16]): no binding (tested: 50μg/mL)
- binding result (LILRA6 [17]): no binding (tested: 50μg/mL)
- binding result (LILRA3 [18]): no binding (tested: 50μg/mL)
- binding result (LILRB3 [19]): no binding (tested: 50μg/mL)
- binding result (LILRB5 [20]): no binding (tested: 50μg/mL)
- binding result (LILRB2 [21]): no binding (tested: 50μg/mL)
- binding result (LILRA2 [22]): no binding (tested: 50μg/mL)
- binding result (LILRA1 [23]): no binding (tested: 50μg/mL)
- IC50 [24]: 10.5 µg/mL
B1: 抗LILRB4单克隆抗体MF-I (full antibody, mouse IgG1 heavy chain constant region and mouse Ck light chain constant region) (antibody, V domains shown)
VH: QVQLEQSGAELVKPGASVKLSCKASGYTFTNYWMHWVKQRHGQGLEWIGEINPSNGRTNYNEKFKTKATLTVDKSSSTAYMQLSSLTSEDSAVYYCAKNYRYDDWAMDYWGQGTSVTVSS
VL: DIVLTQSPSSMYASLGERVTITCKASEDINSYLSWFQQKPGKSPKTLIYRANRLVDGVPSRFSGSGSGQDYSLTISSLEYEDMGIYYCLQYDEIPPTFGAGTKLELKA
notes: also called MF-Ⅰ
